Results as given in patent US20060111296A1 (DYAX, published 2006).

Biological target: T1, plasmin (human, UniProt P00747 97-810, limits assumed)
T1 construct: Active plasmin is a two-chain, disulfide-linked form of plasminogen; also called human plasmin
Assay: inhibition constant for human plasmin; method not described

T1 sequence (P00747 97-810 limits assumed): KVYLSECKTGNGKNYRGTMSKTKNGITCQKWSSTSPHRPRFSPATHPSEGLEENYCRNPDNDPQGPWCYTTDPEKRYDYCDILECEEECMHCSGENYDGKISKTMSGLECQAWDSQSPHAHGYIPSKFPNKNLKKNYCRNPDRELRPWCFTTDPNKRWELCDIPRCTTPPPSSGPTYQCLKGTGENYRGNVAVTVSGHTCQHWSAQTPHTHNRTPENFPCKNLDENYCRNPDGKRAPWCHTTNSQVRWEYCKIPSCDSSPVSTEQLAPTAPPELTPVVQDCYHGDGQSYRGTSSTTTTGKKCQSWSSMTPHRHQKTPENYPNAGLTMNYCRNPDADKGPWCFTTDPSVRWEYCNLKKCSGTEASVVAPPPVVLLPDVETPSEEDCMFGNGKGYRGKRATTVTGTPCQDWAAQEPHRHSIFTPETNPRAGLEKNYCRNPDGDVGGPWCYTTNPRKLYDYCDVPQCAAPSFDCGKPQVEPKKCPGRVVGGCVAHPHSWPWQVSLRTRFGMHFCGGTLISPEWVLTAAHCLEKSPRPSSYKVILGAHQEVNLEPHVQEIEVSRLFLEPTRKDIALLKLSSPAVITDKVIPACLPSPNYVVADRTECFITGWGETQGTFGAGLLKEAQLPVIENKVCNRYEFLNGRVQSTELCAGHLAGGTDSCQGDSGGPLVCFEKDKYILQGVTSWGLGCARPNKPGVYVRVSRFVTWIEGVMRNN

Ki: 0.088 nM
B1: DX-1000 (designed binder)
chain: MHSFCAFKAETGPCRARFDRWFFNIFTRQCEEFIYGGCEGNQNRFESLEECKKMCTRD
notes: Engineered Kunitz domain on the human LACI-K1 framework; also called DX-1000 (unmodified)
